# Results from US20180118840A1 (Eli Lilly, published 2018).
# T1: human Dkk-1 (Dickkopf-related protein 1) (human, UniProt O94907 32-266)
# T1 sequence (looked up): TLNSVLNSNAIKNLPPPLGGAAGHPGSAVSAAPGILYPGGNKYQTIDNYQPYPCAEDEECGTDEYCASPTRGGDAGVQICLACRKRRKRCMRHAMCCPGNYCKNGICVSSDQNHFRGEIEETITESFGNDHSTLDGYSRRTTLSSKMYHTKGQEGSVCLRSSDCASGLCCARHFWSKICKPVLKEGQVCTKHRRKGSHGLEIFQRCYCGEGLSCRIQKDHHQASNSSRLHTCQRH
# T2: human RANKL (receptor activator of nuclear factor kappa-B ligand) (human, UniProt O14788 140-317, limits assumed)
# T2 construct: Soluble analyte in SPR; soluble hRANKL at 100 ng/mL in the reporter assay; also called hRANKL
# T2 sequence (looked up): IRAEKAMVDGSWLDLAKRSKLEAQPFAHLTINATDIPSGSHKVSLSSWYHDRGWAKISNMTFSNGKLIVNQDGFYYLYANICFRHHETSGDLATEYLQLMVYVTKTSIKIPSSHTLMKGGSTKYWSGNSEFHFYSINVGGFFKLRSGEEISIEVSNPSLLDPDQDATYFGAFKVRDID
# B1: Dkk-1 neutralizing antibody (a Dkk-1 antibody having an IgG4 backbone and the same heavy and light chain variable region sequences as the mAb portion of the … (antibody, V domains shown)
# VH: EVQLVESGGGLVQPGGSLRLSCAASGFTFSSYTMSWVRQAPGKGLEWVATISGGGFGTYYPDSVKGRFTISRDNAKNSLYLQMNSLRAEDTAVYYCARPGYNNYYFDIWGQGTTVTVSS
# VL: EIVLTQSPATLSLSPGERATLSCHASDSISNSLHWYQQKPGQAPRLLIYYARQSIQGIPARFSGSGSGTDFTLTISSLEPEDFAVYYCQQSESWPLHFGGGTKVEIK
# B2: exemplified bispecific antibody compound of Table 1 (anti-Dkk-1 IgG4 mAb with anti-RANKL scFv linked at the C-terminus of each heavy chain) (bispecific antibody)
# heavy: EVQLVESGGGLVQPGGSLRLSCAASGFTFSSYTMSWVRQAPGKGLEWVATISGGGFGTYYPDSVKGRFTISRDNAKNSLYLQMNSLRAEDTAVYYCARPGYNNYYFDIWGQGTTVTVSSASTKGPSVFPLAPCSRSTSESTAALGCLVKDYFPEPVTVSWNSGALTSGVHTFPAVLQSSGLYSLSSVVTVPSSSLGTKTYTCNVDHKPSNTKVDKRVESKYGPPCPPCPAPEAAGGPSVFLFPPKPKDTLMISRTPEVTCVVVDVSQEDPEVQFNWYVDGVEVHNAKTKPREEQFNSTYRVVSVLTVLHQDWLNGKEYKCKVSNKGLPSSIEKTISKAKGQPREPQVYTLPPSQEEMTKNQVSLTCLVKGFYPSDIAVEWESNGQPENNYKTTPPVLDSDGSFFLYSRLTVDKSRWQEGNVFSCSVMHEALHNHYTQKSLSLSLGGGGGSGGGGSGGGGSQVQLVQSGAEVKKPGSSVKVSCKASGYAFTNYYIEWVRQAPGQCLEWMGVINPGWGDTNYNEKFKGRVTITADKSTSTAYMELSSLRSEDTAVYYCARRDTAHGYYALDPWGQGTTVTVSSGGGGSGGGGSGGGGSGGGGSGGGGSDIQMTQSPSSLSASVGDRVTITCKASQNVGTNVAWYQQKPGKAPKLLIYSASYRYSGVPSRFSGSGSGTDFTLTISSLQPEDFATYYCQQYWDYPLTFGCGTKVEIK
# light: EIVLTQSPATLSLSPGERATLSCHASDSISNSLHWYQQKPGQAPRLLIYYARQSIQGIPARFSGSGSGTDFTLTISSLEPEDFAVYYCQQSESWPLHFGGGTKVEIKRTVAAPSVFIFPPSDEQLKSGTASVVCLLNNFYPREAKVQWKVDNALQSGNSQESVTEQDSKDSTYSLSSTLTLSKADYEKHKVYACEVTHQGLSSPVTKSFNRGEC
# modifications: glycosylated at asparagine residue 296 of SEQ ID NO: 1
# notes: also called Exemplified Bispecific Ab
# Experiments:
# [1] = target: T1, human Dkk-1 (Dickkopf-related protein 1); assay: cell-based or functional assay
# [2] = target: T1, human Dkk-1 (Dickkopf-related protein 1); assay: SPR (Biacore 2000), antibody captured on protein A, antigen as analyte, 1:1 model, average of n=3
# Experimental: (§1) A CM5 chip (Biacore, pin. BR-100530) containing immobilized protein A (generated using standard NHS-EDC amine coupling) on all four flow cells (Fc) is used to employ a capture methodology. Antibody samples are prepared at 0.2-10 μg/mL by dilution into running buffer. Human Dkk-1 samples are prepared at final concentrations of 100 nM, 50 nM, 25 nM, 12.5 nM, 6.25 nM, 3.125 nM, 1.5625 nM, 0.78125 nM, 0.390625 nM, 0.1953125 nM, and 0 (blank) nM by dilution into running buffer. Human RANKL are prepared at final concentrations of 100 nM, 50 nM, 25 nM, 12.5 nM, 6.25 nM, 3.125 nM, 1.5625 nM, 0.78125 nM, 0.390625 nM, 0.1953125 nM, and 0 (blank) nM by dilution into running buffer.
# (§2) Each analysis cycle consists of (1) capturing antibody samples on separate flow cells (Fc2 and Fc3); (2) injection of each human Dkk-1 concentration over all Fc at 50 μL/min for 300 seconds followed by return to buffer flow for 1200 seconds to monitor dissociation phase; (3) injection of each human RANKL concentration over all Fc at 100 μL/min for 150 seconds followed by return to buffer flow for 1800 seconds to monitor dissociation phase; (4) regeneration of chip surfaces with injection of 10 mM glycine, pH 1.5, for 120 seconds at 5 μL/min over all cells; and (5) equilibration of chip surfaces with a 10 μL (60-sec) injection of HBS-EP+. Data are processed using standard double-referencing and fit to a 1:1 binding model using Biacore 2000 Evaluation software, version 2.0.3, to determine the association rate (kₒₙ, M⁻¹s⁻¹ units), dissociation rate (koff, s⁻¹ units), and Rₘₐₓ (RU units). The equilibrium dissociation constant (KD) is calculated from the relationship KD=koff/kₒₙ, and is in molar units.
# [3] = target: T2, human RANKL (receptor activator of …); assay: SPR (Biacore 2000), antibody captured on protein A, antigen as analyte, 1:1 model, average of n=5
# Experimental: as §1, §2
# [4] = target: T2, human RANKL (receptor activator of …); assay: cell-based or functional assay
Binder,"EC50, restoration of Wnt3a-induced TCF/LEF luciferase luminescence in MC3T3E1/Topflash cells [1] [nM]",Kd [2] [nM],koff [2] [s⁻¹],kon [2] [M⁻¹ s⁻¹],Kd [3] [nM],koff [3] [s⁻¹],kon [3] [M⁻¹ s⁻¹],"IC50, reduction of RANKL-induced NF-kB driven luciferase luminescence in HEK293 cells expressing human RANK [4] [nM]"
B1,6.61,,,,,,,
B2,5.3,0.0357,6.55e-05,1.83e+06,0.0874,4.2e-05,530000,1.2
